# US20260139001A1
# Target: SARS-CoV-2 Spike RBD, Wuhan (SARS-CoV-2) (UniProt P0DTC2)
substance,measurement,value
Ribosomally constructed Wuhan-NS (VHH72 V104UAG construct translated with NBDxK-tRNACUA),normalized tube fluorescence,0.58
